Drawing on paper PMC11799434 (2025), this text covers Kd and koff for one molecule.

In the test the target is MT-100. Kind of test: BLI. On the technique in general: In BLI a coated tip is dipped into the sample, and binding shifts an interference pattern.

B1: extracellular domain of human Tie2 fused with Fc (hTie2-ECD-Fc) (Fc fusion)
chain: AMDLILINSLPLVSDAETSLTCIASGWRPHEPITIGRDFEALMNQHQDPLEVTQDVTREWAKKVVWKREKASKINGAYFCEGRVRGEAIRIRTMKMRQQASFLPATLTMTVDKGDNVNISFKKVLIKEEDAVIYKNGSFIHSVPRHEVPDILEVHLPHAQPQDAGVYSARYIGGNLFTSAFTRLIVRRCEAQKWGPECNHLCTACMNNGVCHEDTGECICPPGFMGRTCEKACELHTFGRTCKERCSGQEGCKSYVFCLPDPYGCSCATGWKGLQCNEACHPGFYGPDCKLRCSCNNGEMCDRFQGCLCSPGWQGLQCEREGIQRMTPKIVDLPDHIEVNSGKFNPICKASGWPLPTNEEMTLVKPDGTVLHPKDFNHTDHFSVAIFTIHRILPPDSGVWVCSVNTVAGMVEKPFNISVKVLPKPLNAPNVIDTGHNFAVINISSEPYFGDGPIKSKKLLYKPVNHYEAWQHIQVTNEIVTLNYLEPRTEYELCVQLVRRGEGGEGHPGPVRRFTTASIGLPPPRGLNLLPKSQTTLNLTWQPIFPSSEDDFYVEVERRSVQKSDQQNIKVPGNLTSVLLNNLHPREQYVVRARVNTKAQGEWSEDLTAWTLSDILPPQPENIKISNITHSSAVISWTILDGYSISSITIRYKVQGKNEDQHVDVKIKNATITQYQLKGLEPETAYQVDIFAENNIGSSNPAFSHELVTLPESQAPADLGGGKMLL
Turning to B1, binding was characterised by a dissociation constant (Kd) of 2.5 nM and the koff – broadly, a measure of how fast the partners let go of each other – is 0.0011 s⁻¹.
